Reference: article PMC3702670 (Nature structural & molecular biology, 2013)
Like-named read-outs stand apart in the source and are kept apart here.

Key:
[1] = biological target: T1, GR DBD WT (rat, UniProt P06536 440-525); assay: NMR
[2] = biological target: T2, GR DBD A477T (rat, UniProt P06536 440-525, A477T); assay: NMR
[3] = biological target: T1, GR DBD WT; assay: NMR; remark: listed apart in the source
[4] = biological target: T2, GR DBD A477T; assay: NMR; remark: listed apart in the source
[5] = biological target: T1, GR DBD WT; assay: NMR; remark: listed apart in the source
[6] = biological target: T1, GR DBD WT; assay: SPR
[7] = biological target: the molecule itself; assay: […]
[8] = biological target: the molecule itself; assay: SPR

B1: Fkbp5 GBS (dsDNA)
DNA 1: GTACAGAACAGGGTGTTCTTCGAC
DNA 2: GTCGAAGAACACCCTGTTCTGTAC
- binding result [1]: binds
- binding result [2]: binds

B2: Gilz GBS (dsDNA)
DNA 1: GTACAGAACATTGGGTTCCTCGAC
DNA 2: GTCGAGGAACCCAATGTTCTGTAC
- binding result [3]: binds

B3: Sgk GBS (dsDNA)
DNA 1: GTACAGAACATTTTGTCCGTCGAC
DNA 2: GTCGACGGACAAAATGTTCTGTAC
- binding result [1]: binds
- binding result [4]: binds

B4: Gha GBS (dsDNA)
DNA 1: GTACGGAACATAATGTTCCTCGAC
DNA 2: GTCGAGGAACATTATGTTCCGTAC
- binding result [4]: binds
- binding result [5]: binds

B5: Pal-R GBS (dsDNA)
DNA 1: GTACAGAACATTTTGTTCTTCGAC
DNA 2: GTCGAAGAACAAAATGTTCTGTAC
- binding result [6]: binds

B6: Sgk-ggg GBS (dsDNA)
DNA 1: GTACAGAACAGGGTGTCCGTCGAC
DNA 2: GTCGACGGACACCCTGTTCTGTAC
- binding result [1]: binds

B7: rat glucocorticoid receptor DNA binding domain, wild type (domain or fragment)
chain: CLVCSDEASGCHYGVLTCGSCKVFFKRAVEGQHNYLCAGRNDCIIDKIRRKNCPACRYRKCLQAGMNLEARKTKKKIKGIQQATAG
- binding result [7]: binds

B8: rat glucocorticoid receptor DNA binding domain, [change] mutant (domain or fragment)
chain: CLVCSDEASGCHYGVLTCGSCKVFFKRAVEGQHNYLCTGRNDCIIDKIRRKNCPACRYRKCLQAGMNLEARKTKKKIKGIQQATAG
- binding result [8]: binds

B9: Pal-ttg GBS (dsDNA)
DNA 1: GTACAGAACATTGTGTTCTTCGAC
DNA 2: GTCGAAGAACACAATGTTCTGTAC
- binding result [3]: binds
